For experiment [1], the target named is T1, human MICA/B endogenously expressed on 786-O cells (MICA allele *008) (human, UniProt Q29983 24-331).
T1 construct: it speaks of MICA/B, so MICB may be present as well; also called 786-0
T1 chain: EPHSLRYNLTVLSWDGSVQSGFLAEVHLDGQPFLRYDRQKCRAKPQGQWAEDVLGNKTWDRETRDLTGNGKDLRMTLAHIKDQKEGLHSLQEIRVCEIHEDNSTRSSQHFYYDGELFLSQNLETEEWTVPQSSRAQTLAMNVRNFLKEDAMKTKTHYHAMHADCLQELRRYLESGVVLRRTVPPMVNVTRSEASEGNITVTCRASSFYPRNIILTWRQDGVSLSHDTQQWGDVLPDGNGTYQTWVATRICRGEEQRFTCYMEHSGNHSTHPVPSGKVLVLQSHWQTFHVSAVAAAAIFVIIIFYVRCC
Kind of experiment: Scatchard analysis, 125I-MICA.36 on 786-0 cells; 786-0 cells (FIG. 7F). How it is done:
(§1) Nonspecific binding was determined by binding in the presence of a titration of a 100 fold molar excess of unlabeled antibody and was subtracted from total counts per minute (CPM) to calculate specific binding. A linear standard curve of ¹²⁵I-MICA.36 concentration versus CPM was used to extrapolate specific activity, maximal nM bound ¹²⁵I-MICA.36 and thereby calculate receptor number per cell.
(§2) Specific activity of the iodinated MICA.36 was determined by plotting antibody titrations against the associated CPMs in a standard curve (FIG. 7A). The specific activity was calculated to be 164,214 CPM in 1 nM of ¹²⁵I-MICA.36. The number of receptors per cell was calculated by the following equation: (Bmax)×(Avogadro's number)×(Assay Volume)/# of cells per well.

The target in experiment [2] is T2, human MICA/B endogenously expressed on SW480 cells (human, UniProt Q29983 24-383).
T2 construct: whole, on cells
T2 sequence (looked up): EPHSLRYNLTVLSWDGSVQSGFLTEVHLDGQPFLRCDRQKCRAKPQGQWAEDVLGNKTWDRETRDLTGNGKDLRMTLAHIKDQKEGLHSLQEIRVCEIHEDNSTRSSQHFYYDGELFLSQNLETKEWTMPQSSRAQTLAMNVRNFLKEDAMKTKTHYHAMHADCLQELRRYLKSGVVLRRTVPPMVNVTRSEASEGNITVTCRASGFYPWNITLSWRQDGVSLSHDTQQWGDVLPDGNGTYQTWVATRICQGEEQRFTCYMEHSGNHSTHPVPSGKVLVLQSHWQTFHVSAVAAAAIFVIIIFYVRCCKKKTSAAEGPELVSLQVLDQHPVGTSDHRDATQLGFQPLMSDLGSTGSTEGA
Kind of experiment: Scatchard analysis, 125I-MICA.36 on SW480 cells; SW480 cells (FIG. 7G). How it is done:
as §1, §2

Experiment [3] addresses T3, cynomolgus monkey MICA/B clone #6 expressed on CHO cells (cynomolgus monkey).
T3 construct: whole, on cells; also called cyno#6; CHO-cyno MICA clone #6
Description: saturation binding of 125I-labelled antibody on CHO-MICA Cyno #6 cells, 25K per well; fit of total binding, non-specific binding not subtracted. How it is done:
as §1, §2

The target of experiment [4] is T4, cynomolgus monkey MICA/B clone #4 expressed on CHO cells (cynomolgus monkey).
T4 construct: whole, on cells; also called cyno#4; CHO-cyno MICA clone #4
Kind of experiment: saturation binding of 125I-labelled antibody on CHO-MICA Cyno #4 cells, 25K per well (Scatchard analysis); unit from the x axis 'nM Radioligand'; curve not saturated at 20 nM. On the procedure: as §1, §2

Experiment [5] addresses T5, human MICB expressed on transduced cells (human, UniProt Q29980 23-382).
T5 construct: also called MICB*005
T5 chain: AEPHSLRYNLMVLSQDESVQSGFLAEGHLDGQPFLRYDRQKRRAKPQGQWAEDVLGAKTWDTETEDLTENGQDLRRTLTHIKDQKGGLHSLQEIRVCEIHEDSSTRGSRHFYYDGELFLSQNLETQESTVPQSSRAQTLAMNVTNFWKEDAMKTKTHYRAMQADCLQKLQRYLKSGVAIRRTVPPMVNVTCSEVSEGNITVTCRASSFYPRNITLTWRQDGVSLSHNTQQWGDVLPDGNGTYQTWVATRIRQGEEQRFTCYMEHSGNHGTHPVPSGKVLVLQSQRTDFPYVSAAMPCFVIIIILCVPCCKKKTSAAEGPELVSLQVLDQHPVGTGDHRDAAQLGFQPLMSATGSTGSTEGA
Kind of experiment: saturation binding of 125I-labelled antibody on CHO-MICB cells, 12500 per well; fit of total binding, non-specific binding not subtracted; x axis without unit. On the procedure:
as §1, §2

Experiment [6] concerns the target T1, human MICA/B endogenously expressed on …. Description: saturation binding of 125I-labelled antibody on 786-O cells, 50,000 cells/well; fit of total binding, non-specific binding not subtracted. How it is done:
as §1

Experiment [7] has the same target. Description: saturation binding of 125I-labelled antibody on 786-O cells, 50,000 cells/well (Scatchard analysis); unit from the x axis 'nM Antibody'. On the procedure: as §1, §2
Experiment [8] deals with T4, cynomolgus monkey MICA/B clone #4 …. Kind of experiment: flow cytometry (GMFI, FACSCalibur), CHO cells with cyno MICA #4; unit from the x axis; curve from about 13000 at 0.1 ug/ml to about 94500 GMFI at 40 ug/ml.

B1: MICA.36 (antibody, V domains shown)
VH: QVQLVESGGGVVQPGRSLRLSCAASGFTFSNYAMHWVRQAPGEGLEWVALIWYDGSNKFYGDSVKGRFTISRDNSKNTLYLQMNSLSAEDTAVYYCAREGSGHYWGQGTLVTVSS
VL: AIQLTQSPSSLSASVGDRVTITCRASQGISSALAWYQQKPGKVPKSLIYDASSLESGVPSRFSGSGSGTDFTLTISSLQPEDFATYYCQQFNSYPITFGQGTRLEIK
notes: it says that the name implies no specific constant region; Radioiodinated in the Scatchard assay; also called MICA.36 antibody
Turning to B1, the Kd in experiment [1] was roughly 0.4 nM; in experiment [2], roughly 0.4 nM; in experiment [4], 11 nM; in experiment [7], 0.356 nM. For the same molecule, the entries for the “Kd of the total-binding curve” value in experiment [3], in experiment [5] and in experiment [6] were 8.27 nM, 2.8 nM and 0.6 nM, respectively.

B2: 19G6 (antibody, V domains shown)
VH: QVQLVESGGGVVQPGRSLRLSCAASGFTFSNYAMHWVRQAPGEGLEWVALIWYDGSNKFYGDSVKGRFTISRDNSKNTLYLQMNSLSAEDTAVYYCAREGSGHYWGQGTLVTVSS
VL: AIQLTQSPSSLSASVGDRVTITCRASQGISSALAWYQQKPGKVPKSLIYDASSLESGVPSRFSGSGSGTDFTLTISSLQPEDFATYYCQQFNSYPITFGQGTRLEIK
notes: Hybridoma antibody from human IgG transgenic mice, parent of MICA.36; also called 19G6 mAb; hybridoma 19G6
As to B2, in experiment [8], the EC50 turned out to be 0.161 µg/mL.

(Values after patent publication US20220281980A1 (Bristol-Myers Squibb, published 2022).)
